From patent publication US20170342148A1 (UNIVERSITE DE NANTES, published 2017)

Assays:
[1] = biological target: T1, recombinant protein IL-34 (Peprotech Ref 200-34, whole protein without signal peptide with His tag on … (UniProt Q6ZMJ4 21-242)); assay: SPR (BIAcore T100), antibody captured, IL-34 as analyte
T1 construct: mature; also called IL-34 protein; recombinant IL-34; not shown: C-terminal His tag
T1 sequence (looked up): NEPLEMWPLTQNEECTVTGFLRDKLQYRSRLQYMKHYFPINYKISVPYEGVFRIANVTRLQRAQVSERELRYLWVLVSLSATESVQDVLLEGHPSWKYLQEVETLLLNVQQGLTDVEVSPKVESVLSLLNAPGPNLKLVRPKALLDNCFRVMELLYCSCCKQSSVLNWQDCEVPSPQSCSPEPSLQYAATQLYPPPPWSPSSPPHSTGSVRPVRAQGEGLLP
Protocol: (§1) Theses interaction were performed at 25° C., in HBS-P+ buffer (HEPES 10 mM pH 7.4; NaCl 150 mM; P20 0.05%) by administrating different concentrations of IL-34 obtained by serial dilution of the protein IL-34 (Peprotech Ref 200-34, whole protein without signal peptide with His tag on C-terminal).
(§2) The regeneration is performed by administering 10 mM of Glycine-HCl buffer at pH=1.7 allowing dissociating the antibody IL-34 from immobilized polyclonal antibody.

[2] = biological target: T2, M-CSF receptor (R&D-Systems ref: 329-MR) (UniProt P07333 20-512); assay: SPR (BIAcore T100), antibody injected over immobilised M-CSF-R
T2 construct: Bought soluble receptor, immobilised covalently on a CM5 chip; also called CSF-1 receptor; receptor M-CSF-R
T2 sequence (P07333 20-512 limits assumed): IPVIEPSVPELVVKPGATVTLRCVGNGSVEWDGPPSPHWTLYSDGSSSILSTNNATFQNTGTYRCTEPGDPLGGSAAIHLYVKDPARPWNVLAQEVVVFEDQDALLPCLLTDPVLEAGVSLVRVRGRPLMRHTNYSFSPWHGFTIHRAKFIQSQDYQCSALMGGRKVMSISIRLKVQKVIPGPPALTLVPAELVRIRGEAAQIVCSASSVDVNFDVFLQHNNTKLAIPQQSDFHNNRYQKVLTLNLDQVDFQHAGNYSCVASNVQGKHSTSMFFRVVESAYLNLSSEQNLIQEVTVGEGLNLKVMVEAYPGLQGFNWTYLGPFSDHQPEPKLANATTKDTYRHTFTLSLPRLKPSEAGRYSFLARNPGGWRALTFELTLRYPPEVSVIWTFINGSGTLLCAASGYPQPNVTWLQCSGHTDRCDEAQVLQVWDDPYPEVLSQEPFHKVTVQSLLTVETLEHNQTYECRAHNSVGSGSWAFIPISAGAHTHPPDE
Protocol: The measurement of surface plasmon resonance (SPR) was performed on BIACore T100. The microarrays CM5 (CM-dextran, 1-ethyl-3-(3-[…]) carbodiimide hydrochloride (EDC) and N-Hydroxysuccinimide (NHS) have been purchased by GE Healthcare BIAcore and used according to manufacture instructions.
The ligand, M-CSF receptor (R&D-Systems ref: 329-MR) was immobilized covalently on the CM5 microarray surface. Capture level of […] is comprised between 600 and 800 RU.
Theses interaction were performed at 25° C., in HBS-P+ buffer (HEPES 10 mM pH 7.4; NaCl 150 mM; P20 0.05%).

[3] = biological target: T1, recombinant protein IL-34 (Peprotech …); assay: SPR (BIAcore T100), antibody captured on immobilised polyclonal anti-mouse antibody, IL-34 as analyte, 25 °C, 1:1 model
Protocol: as §1, §2
The obtained results are shown by sensograms of FIG. 2.

B1: murine anti-IL-34 antibody (clone BT34) (antibody, V domains shown)
VH: EVQLQQFGAELVKPGASVKISCKASGYTFTDYNMDWVKQSHGKSLEWIGDINPNYESTTYNQKFKGKATLTVDRSSSTAYMELRSLTSEDTAVYYCLRSGGDYWGQGTTLTVSS
VL: DVLMTQTPLSLPVGLGDQASISCRSSQTIVHSNGKTYLEWYLQKPGQSPKLLIYKVSNRFSGVPDRFSGSGSGTDFTLKISRVEAEDLGVYYCFQGSHVPLTFGAGTKLELK
notes: Murine monoclonal antibody from a hybridoma; No single sentence ties these numbers to BT34; also called anti-IL-34 antibody BT34; anti-IL-34 BT34 clone
B1 was tested, and the koff [1] was less than 1e-06 s⁻¹, the binding result [2] was “no binding (tested: 10 nM)” and the Kd [3] was 9.4 pM. It also gave a koff [3] of 2.9e-07 s⁻¹ and a kon [3] of 31000 M⁻¹ s⁻¹.
